Reference: paper PMC5777258, “Phosphorylation of human enhancer filamentation 1 (HEF1) stimulates interaction with Polo-like kinase 1 leading to HEF1 localization to focal adhesions” (The Journal of Biological Chemistry, 2017)
Each block holds one molecule with its values, some of them ahead of it. Square brackets hold non-standard residues; d marks the D form. Ends that are not written are not given here. pT = C[C@@H](OP(=O)(O)O)[C@H](N)C(=O)O

What was measured:
HEF1, endogenous = HEF1, endogenous (UniProt Q14511); assay: GST pull-down (bead-conjugated GST-PBD) with anti-HEF1 immunoblot, bands quantified with ImageJ; conditions: HeLa total cell lysate, parent: 1.0
HEF1, endogenous, sequence (Q14511 whole entry, the tested form may be a part): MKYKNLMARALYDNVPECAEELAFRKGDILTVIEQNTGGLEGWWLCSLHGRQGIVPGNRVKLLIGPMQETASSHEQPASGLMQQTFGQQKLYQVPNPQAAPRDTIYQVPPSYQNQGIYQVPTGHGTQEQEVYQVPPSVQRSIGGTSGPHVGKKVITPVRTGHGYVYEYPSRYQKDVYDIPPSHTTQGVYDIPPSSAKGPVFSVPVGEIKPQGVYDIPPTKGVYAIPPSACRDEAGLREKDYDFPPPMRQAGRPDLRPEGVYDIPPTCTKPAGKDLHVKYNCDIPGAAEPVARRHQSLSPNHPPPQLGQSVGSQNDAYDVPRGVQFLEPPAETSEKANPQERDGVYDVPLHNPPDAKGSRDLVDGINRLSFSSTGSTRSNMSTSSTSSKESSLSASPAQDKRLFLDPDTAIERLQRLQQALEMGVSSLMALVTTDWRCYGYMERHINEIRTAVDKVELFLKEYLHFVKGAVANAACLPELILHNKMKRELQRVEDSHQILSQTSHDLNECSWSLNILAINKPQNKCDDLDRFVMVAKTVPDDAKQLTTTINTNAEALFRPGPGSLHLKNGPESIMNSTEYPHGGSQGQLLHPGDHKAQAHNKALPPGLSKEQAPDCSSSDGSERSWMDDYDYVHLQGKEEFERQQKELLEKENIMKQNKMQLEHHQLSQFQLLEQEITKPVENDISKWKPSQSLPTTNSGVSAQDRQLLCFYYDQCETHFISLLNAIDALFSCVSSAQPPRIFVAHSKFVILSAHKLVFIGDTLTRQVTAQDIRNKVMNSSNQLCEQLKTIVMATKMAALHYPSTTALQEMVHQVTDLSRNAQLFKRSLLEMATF

[1] = molecular target: T1, Polo box domain of mouse Plk1 (residues 367-603), for crystallization (mouse, UniProt Q07832 367-603); assay: crystal structure; Plk1 PBD (10 mg/ml) with pThr-804 peptide added in a 1:3 molar ratio, incubated overnight; sitting-drop vapor diffusion at 295 K, 0.1 M sodium citrate pH 5.5, 15% PEG 6000; 2.9 Å; conditions: both partners purified
T1 construct: Polo box domain of mouse Plk1, Swiss Prot entry Q07832, residues 367-603; residues 371-593 are in the final model; TEV site ENLYFQS between the tag and the PBD, cleaved between Q and S: a serine is left before the PBD; also called Plk1 PBD; Plk1-PBD; source: E. coli BL21 (DE3) CodonPlus RIL, purified (Ni-NTA, TEV digestion, Superdex-75 gel filtration); not shown: His6, N-terminal, cleaved
T1 sequence (Q07832 367-603): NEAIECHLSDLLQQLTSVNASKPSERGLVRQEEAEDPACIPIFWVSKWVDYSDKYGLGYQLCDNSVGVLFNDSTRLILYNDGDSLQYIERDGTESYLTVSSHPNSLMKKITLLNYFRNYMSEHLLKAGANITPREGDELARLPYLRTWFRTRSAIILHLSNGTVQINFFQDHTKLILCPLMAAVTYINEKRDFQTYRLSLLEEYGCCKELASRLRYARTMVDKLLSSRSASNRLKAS

ratio to parent (HEF1, endogenous; asynchronously growing (Async.)): 0.1 | ratio to parent (HEF1, endogenous; nocodazole (Noc)-treated (M phase)): 0.2 | ratio to parent (HEF1, endogenous; thymidine (Thy)-treated (S phase)): 0.1
Molecule: GST-Plk1 PBD WT (Polo box domain of Plk1) H538A; K540M

binding result [1]: binds
B1: HEF1 pThr-804 peptide (799-LHYPSpTTALQE-809), free, for crystallization (peptide)
peptide: LHYPS[pT]TALQE
notes: HEF1 (NEDD9), human, aa 799-809; 800-HYPSpTTAL-807 is in the final model; source: synthetic peptide
